Measured values reported in the DeepSol protein solubility set.

test: soluble on expression in E. coli; label from the status in PepcDB or PDB records

Sequence	soluble on expression in E. coli
MSLRVLKFGGTSVANAERFLRVADILESNARQGQVATVLSAPAKITNHLVAMIEKTISGQDALPNISDAERIFAELLTGLAAAQPGFPLAQLKTFVDQEFAQIKHVLHGISLLGQCPDSINAALICRGEKMSIAIMAGVLEARGHNVTVIDPVEKLLAVGHYLESTVDIAESTRRIAASRIPADHMVLMAGFTAGNEKGELVVLGRNGSDYSAAVLAACLRADCCEIWTDVDGVYTCDPRQVPDARLLKSMSYQEAMELSYFGAKVLHPRTITPIAQFQIPCLIKNTGNPQAPGTLIGASRDEDELPVKGISNLNNMAMFSVSGPGMKGMVGMAARVFAAMSRARISVVLITQSSSEYSISFCVPQSDCVRAERAMQEEFYLELKEGLLEPLAVTERLAIISVVGDGMRTLRGISAKFFAALARANINIVAIAQGSSERSISVVVNNDDATTGVRVTHQMLFNTDQVIEVFVIGVGGVGGALLEQLKRQQSWLKNKHIDLRVCGVANSKALLTNVHGLNLENWQEELAQAKEPFNLGRLIRLVKEYHLLNPVIVDCTSSQAVADQYADFLREGFHVVTPNKKANTSSMDYYHLLRHAAEKSRRKFLYDTNVGAGLPVIENLQNLLNAGDELMKFSGILSGSLSYIFGKLDEGMSFSEATTLAREMGYTEPDPRDDLSGMDVARKLLILARETGRELELADIEIEPVLPAEFNAEGDVAAFMANLSQLDDLFAARVAKARDEGKVLRYVGNIDEDGVCRVKIAEVDGNDPLFKVKNGENALAFYSHYYQPLPLVLRGYGAGNDVTAAGVFADLLRTLSWKLGVEGHHHHHH	soluble
MNVKGFRFSAVEAAIKKPGRLDLALICSDAPAAVAAVYTTNKVKAAPVLLDMERTTSGTCRAVVVNSGNANACTGDRGMEDARETTSLVAERIGASEHEVLVCSTGVIGVPLPMERIRGGIPSLVAGLGSATLDQIAAAIMTTDTFPKLEARTGTAGGVGYTIAGIAKGAGMIMPNMATMLAFVVTDAAVDPQWLDRVFRRANDTSFNAITVDGDMSTNDTAIIMANGAAGNPVLSEGSEGAAEFAVLLEEVLLSLAKLIVKDGEGATKFVEVTVKGARSDADAKRAAMAVANSCLVKTAFFGQDANWGRIFAAVGYSGADVEPDRAELFFDDVRMVQGGVFAGGDAEARGTGVLRKKEFTVTVDLHLGDGRATVYTSDLSYDYVKINADYRTLEHHHHHH	not soluble
MSLGNRMKVCIYGAGAIGGYLGVQLAQSGAADVSLVARGAHLQAMKENGLKLLIEGEERVIKPNATDKPAELGVQDVIIICLKAHSITGAIDSMKPLLGSHTRIVTAVNGVPYWYFHKHGGNEFEGRTLESIDPGGRQWKELGPERGIGCIVYPATELEAPGVIRHVYGDKFPIGEPSGETTSDVENLSKVFEASGLKAPILDRIRDEIWLKLWGNVCFNPISALTHATLDVIASDPATRALSKAMMLEAQQIAETFGVKFRVDVERRIEGARKVGAHKTSMLQDLERGRPMEIDPLVTVVQEMGRMTNIPTPAIDSVLGLVIQRAKVAGLYEGHHHHHH	soluble
MNKIRYPAVAGLFYPSHPDELIDMIEQCYLHKFGPKSMPVHGTYEKPIGLLCPHAGYVYSGPIQAHSYYELSKRVDALEETTVVILGPNHTGLGSGVSVMDGIWRTPLGDVKCDEEFVEELWRKCEIVDLDETAHLNEHSIEVQLPFLKHLELLNIAKFKIVPICMMFQDYETAVEVGYFIAKIAKELNRRIVVIASSDLTHYEPQEIASKKDAIVIKDILEMNEKELYEDVVNYNISMCGYGPVIAMLKAMKTLGAEKAKLLAYATSGDITGDYSAVVGYASAIVELEHHHHHH	soluble
SIDEEMQVEAAKALREALQKYDRGRGKWHGTGKSIEPAKLGDEEVWRAELAATEVARDVDLGGRWHPAVVLGVGEQDLSVGVEDGPAKGRVPRSDIKWMKGSFKDNFKLGDVVLVRKADEDWSLRQVPEVQGGFMAMDVNTGRVLAMQGGFSYQDSVFNRATQALRQPGSSFKPFVYAAALDSGYSPATIVVDAPIEVNTPQGLWRPKNASNKFYGPTPLRTGIERSRNLMTIRLAQEVSMPVVAGYAERFGVYDHMGPFLANALGSEETTLYKMVAAYAMFANGGERVEPTLVDRIQDRFGKTIYRHDQRDCVDCLSDRLEPDQAPRIVTNRERVMNAITAYQLTSMMRGVVERGTASGTVKLPVPTAGKTGTTNDAKDVWFIGFTSNIVAGCYIGYDRPQPLGRGASGGGMCGPVFQSFMTEAVKKFGGGPF	not soluble
MGSDKIHHHHHHMDEQIKKAIEAHALAEYPRECCGLVVKTESGEIYVRCRNLAAVPTDQFALASEDYAAAEDMGEIVALVHSHPGASAQPSEADRAMCERSGIEKWVIVSLGVQADGSIGIDDWCEFEPAGYVTRLIGRQFVHGVHDCYAIVRDWYLAERGVLLPDFEREDDWWNDGRSNLYLNHYQDAGFLDVGRGVTLQVGDVLLMQIRSKNDVPNHAGVYLGDGQFLHHMHGRLSARAVWGGMWADCCTTVLRYAGGRK	not soluble
MGSDKIHHHHHHMATPETILSVKDLRVRFRTLDGAVEAVKGINIHVNAGETVAVVGESGSGKSQTMMAAMSLLASNGEATGSVDYRGRNLLTLSKSDLNKVRGAKISMIFQEPMTSLDPLYSIGNQLIEPIRRHRGLNAAEAREEALKLLRLVHIPDPERRMKSYPHEMSGGQRQRVMIAMALANDPDILIADEPTTALDVTIQAQILMLLAELQRKLGMAIVFITHDLGIVRRFADRVYVMRQGEVVEEGEAGAIFANPQHAYTKMLLAAEPTGSKAAPPANAPVVLEGRHVEVTFKIGGGFLAGEPLMLRAVDDISIRLQRNQTIGIVGESGSGKSTLGRALLRLLPSDGLIRFGDRDISTADRQAMRPLRRQMQLVFQDPFGSLSPRMTVGQVITEGLLVHEPNLSGKQRDQRAVEALREVGLDPNARNRYPHEFSGGQRQRIAIARAMILKPKMVVLDEPTSALDRSVQKQIVELLRKLQADHELSYLFISHDLSVVRAMADYIIVMKQGKIVEEGPTEAIFSNPQHVYTQTLMAAAIDVTRFRLSA	not soluble
MGSDKIHHHHHHENLYFQGMYPDLVHLGGADKYFEEILEIVNKIKLFGDFSNEEVRYLCSYMQCYAAPRDCQLLTEGDPGDYLLLILTGEVNVIKDIPNKGIQTIAKVGAGAIIGEMSMIDGMPRSASCVASLPTDFAVLSRDALYQLLANMPKLGNKVLIRLLQLLTARFRESYDRILPKTLGELI	soluble
MGSDKIHHHHHHMQLYYAPNTISVAVAIALEEAGLAYEAVKIDFAEKQQTTRAYHQINPKGRVPALAVEGGILTETGALLEFIADLAPDADLRPSDPVLQARMREVMFYLASTMHVNHAHKMRGSRWASNPASFKDMARKVPETMAASCEYICNHGLRGPFVLGDTPCLADFYLYVVCTWLEGDGVKLAGFPKLRAFIEAMDARDSVKTVRAKDML	not soluble
MSLILCIDVGNSHIYGGVFDGDEIKLRFRHTSKVSTSDELGIFLKSVLRENNCSPETIRKIAICSVVPQVDYSLRSACVKYFSIDPFLLQAGVKTGLNIKYRNPVEVGADRIANAIAATHSFPNQNIIVIDFGTATTFCAISHKKAYLGGAILPGLRLSADALSKNTAKLPSVEIIKTESVVGRSTIESIQSGVYYGVLGACKELIQRIHHEAFNGDQILILATGGFASLFDKQGLYDHLVPDLVLQGIRLAAMMNTAEGHHHHHH	soluble
MSTETIEIFNNSDEWANQLKHALSKGENLALLHGLTPDILDRIYAYAFDYHEKGNITDAEIYYKFLCIYAFENHEYLKDFASVCQPKKKYQQAYDLYKLSYNYFPYDDYSVIYRMGQCQIGAKNIDNAMQCFYHIINNCEDDSVKSKAQAYIELLNDNSEDNGLEHHHHHH	not soluble
MTDTIKIYHNPRCSKSRDTLNLLKSNGVEPEVVLYLDTPADAATVRELLRMLGMSSARELMRQKEDLYKTLHLADSELSEEALIQALVEHPKLMERPIVVANGQARIGRPPEQVLDILG	not soluble
MGSDKIHHHHHHMHFFIRIKEKYIECIRGNINDMQTADYSMVSEIIGNPQRLGMLVFLMDGRFRTVNEVTKATNLKPNTVSLYLSHFEKISWLDDYFQGRWHYYRLANSEVASLIEKILVLSPKKKITYFNLNEEEKLLHTGRSCYNHLAGQLGVQLLCSMKTLNWIRQDGSAFQLTDKGQSNLNNALEIKFSFQEQKSWDFILPCMDWSERQLHLKGIVGKKILGAMLDKEWLYRPNRTRALALTYKGKEKFGDFLQIRA	not soluble
MEQVFAPWRIEWVERDDTTDDDVDCVFCAFPGREHARQHLVVARTDHAAVMLNNYPYNPGHCMVIPDVHTGDYGDLDADTLLDHARLKQATLDALDAALGPDAFNTGLNLGGGAAGGSIGDHLHTHVVPRWNGDTNFMPVISDTKVIVEALDDTYDRLHDAFLARPDATEAPTGAVFVDFNLEHHHHHH	not soluble
